Measurements reported in article PMC11208909.

Biological target: TOPBP1 (UniProt Q92547)
Assay: co-IP of FLAG-HTATSF1 with endogenous TOPBP1
Conditions: reference: wild type; sites S748

For “HIV Tat-specific factor 1 (HTATSF1) (from UniProt O43719) S748A”, the “binding against the reference” value was “lost”.
